Reference: US20250076311A1 (Chugai, published 2025)

T1: cynomolgus monkey FcγRIIa2 extracellular domain with C-terminal His-tag (cynomolgus monkey)
T1 construct: also called cyno FcgRIIa2; cynoFcγRIIa2; not shown: His-tag added to C-terminus
T1 chain: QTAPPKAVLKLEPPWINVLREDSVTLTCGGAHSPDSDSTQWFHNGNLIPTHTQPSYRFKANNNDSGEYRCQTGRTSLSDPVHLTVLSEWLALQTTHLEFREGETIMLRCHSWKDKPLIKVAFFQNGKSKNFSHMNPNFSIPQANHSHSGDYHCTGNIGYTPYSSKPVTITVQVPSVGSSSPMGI

T2: cynomolgus monkey FcγRIIa3 extracellular domain with C-terminal His-tag (cynomolgus monkey)
T2 construct: also called cyno FcgRIIa3; cynoFcγRIIa3; not shown: His-tag added to C-terminus
T2 chain: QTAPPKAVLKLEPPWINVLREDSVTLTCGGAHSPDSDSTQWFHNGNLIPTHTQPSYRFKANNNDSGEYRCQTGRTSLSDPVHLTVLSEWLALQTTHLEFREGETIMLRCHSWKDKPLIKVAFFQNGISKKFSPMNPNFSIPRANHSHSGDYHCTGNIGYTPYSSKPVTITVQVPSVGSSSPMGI

T3: cynomolgus monkey FcγRIIb extracellular domain with C-terminal His-tag (cynomolgus monkey)
T3 construct: also called cyno FcgRIIb; cynoFcγRIIb; not shown: His-tag added to C-terminus
T3 chain: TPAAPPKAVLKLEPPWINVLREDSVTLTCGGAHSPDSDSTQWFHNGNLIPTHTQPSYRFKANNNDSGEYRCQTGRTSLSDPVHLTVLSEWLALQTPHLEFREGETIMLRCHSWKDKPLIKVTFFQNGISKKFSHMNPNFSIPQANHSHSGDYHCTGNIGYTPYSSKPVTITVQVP

T4: human FcγRIIaR extracellular domain with C-terminal His-tag (human, UniProt P12318 34-217)
T4 construct: also called human FcgRIIaR; FcγRIIa (type R); not shown: His-tag added to C-terminus
T4 chain: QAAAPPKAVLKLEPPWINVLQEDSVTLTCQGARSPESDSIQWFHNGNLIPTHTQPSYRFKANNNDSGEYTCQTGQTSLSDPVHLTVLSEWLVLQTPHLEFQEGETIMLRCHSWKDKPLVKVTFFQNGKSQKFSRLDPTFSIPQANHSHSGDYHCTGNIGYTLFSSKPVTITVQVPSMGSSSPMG

T5: human FcγRIIb extracellular domain with C-terminal His-tag (human, UniProt P31994 43-217)
T5 construct: also called human FcgRIIb; not shown: His-tag added to C-terminus
T5 sequence: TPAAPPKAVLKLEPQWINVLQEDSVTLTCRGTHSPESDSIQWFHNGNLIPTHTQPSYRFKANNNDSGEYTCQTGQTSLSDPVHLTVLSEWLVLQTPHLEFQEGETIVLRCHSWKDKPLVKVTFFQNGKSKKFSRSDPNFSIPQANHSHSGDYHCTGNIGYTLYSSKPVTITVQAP

T6: cynomolgus monkey FcγRIIa3 extracellular domain with C-terminal His-tag (cynomolgus monkey)
T6 construct: also called cyno FcgRIIa3; cynoFcγRIIa3
T6 chain: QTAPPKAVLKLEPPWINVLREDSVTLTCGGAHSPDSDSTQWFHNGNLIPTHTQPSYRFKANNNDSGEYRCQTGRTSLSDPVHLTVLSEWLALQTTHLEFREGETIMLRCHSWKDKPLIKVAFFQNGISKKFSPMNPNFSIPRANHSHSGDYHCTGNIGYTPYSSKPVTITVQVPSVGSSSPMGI

T7: human FcγRIIaH extracellular domain, His-tagged (human, UniProt P12318 34-217)
T7 construct: also called human FcgRIIaH; FcγRIIa type H
T7 sequence: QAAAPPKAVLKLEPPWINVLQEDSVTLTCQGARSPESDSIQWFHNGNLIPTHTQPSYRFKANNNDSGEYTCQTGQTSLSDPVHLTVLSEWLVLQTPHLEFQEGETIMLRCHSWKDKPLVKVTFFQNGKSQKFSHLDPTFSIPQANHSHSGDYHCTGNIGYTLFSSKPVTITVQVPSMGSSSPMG

T8: human FcγRIIaR extracellular domain, His-tagged (human, UniProt P12318 34-217)
T8 construct: also called human FcgRIIaR; FcγRIIa type R
T8 chain: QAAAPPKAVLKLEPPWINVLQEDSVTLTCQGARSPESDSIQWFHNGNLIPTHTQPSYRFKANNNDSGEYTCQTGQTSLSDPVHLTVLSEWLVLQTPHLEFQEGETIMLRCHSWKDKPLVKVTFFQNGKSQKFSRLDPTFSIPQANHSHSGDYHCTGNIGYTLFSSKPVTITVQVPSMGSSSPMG


Key:
[1] = molecular target: T1, cynomolgus monkey FcγRIIa2 …; assay: SPR Biacore, antibody captured, FcgR analyte
[2] = molecular target: T2, cynomolgus monkey FcγRIIa3 …; assay: SPR Biacore, antibody captured, FcgR analyte
[3] = molecular target: T3, cynomolgus monkey FcγRIIb extracellular …; assay: SPR Biacore, antibody captured, FcgR analyte
[4] = molecular target: T9, cynomolgus monkey FcγRIIIaS extracellular domain with C-terminal His-tag (cynomolgus monkey, UniProt A3RFZ7 21-206 (rhesus entry)); assay: SPR Biacore, antibody captured, FcgR analyte
T9 construct: also called cyno FcgRIIIaS; cynoFcγRIIIaS; not shown: His-tag added to C-terminus

[5] = molecular target: T4, human FcγRIIaR extracellular domain …; assay: SPR Biacore, antibody captured, FcgR analyte
[6] = molecular target: T5, human FcγRIIb extracellular domain with …; assay: SPR Biacore, antibody captured, FcgR analyte
[7] = molecular target: T6, cynomolgus monkey FcγRIIa3 …; assay: SPR (Biacore), KD of SG1 / KD of variant
Method: The kinetic analysis of interactions between these antibodies and FcγR was carried out using BIACORE® T200 or BIACORE® 4000 (GE Healthcare). HBS-EP+ (GE Healthcare) was used as the running buffer, and the measurement temperature was set to 25° C. […] After the measurement, the antibody captured on the chip was washed off by allowing reaction with 10 mM glycine-HCl, pH1.5 and 25 mM NaOH so that the chip was regenerated and used repeatedly. The sensorgrams obtained as measurement results were analyzed by the 1:1 Langmuir binding model using the BIACORE® Evaluation Software to calculate the binding rate constant ka (L/mol/s) and dissociation rate constant kd (1/s), and the dissociation constant KD (mol/L) was calculated from these values. […] Regarding such interactions, KD values were calculated using the following 1:1 binding model described in BIACORE® T100 Software Handbook BR1006-48 Edition AE.

[8] = molecular target: T10, human FcγRIIIaV extracellular domain with C-terminal His-tag (human, UniProt P08637 17-208); assay: SPR Biacore, antibody captured, FcgR analyte
T10 construct: also called human FcgRIIIaV; not shown: His-tag added to C-terminus

[9] = molecular target: T7, human FcγRIIaH extracellular domain, …; assay: SPR (Biacore), 25C, FcgR bound per antibody captured
[10] = molecular target: T8, human FcγRIIaR extracellular domain, …; assay: as above
[11] = molecular target: T11, human FcγRIIIaV extracellular domain, His-tagged (human, UniProt P08637 17-208); assay: as above
T11 construct: also called human FcgRIIIaV
T11 sequence (P08637 17-208 F176V): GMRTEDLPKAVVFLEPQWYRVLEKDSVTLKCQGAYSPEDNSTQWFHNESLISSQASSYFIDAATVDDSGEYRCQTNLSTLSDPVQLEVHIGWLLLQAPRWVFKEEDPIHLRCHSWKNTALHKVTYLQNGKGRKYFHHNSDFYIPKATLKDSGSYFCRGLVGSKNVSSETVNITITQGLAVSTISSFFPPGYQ

T9 sequence (A3RFZ7 21-206): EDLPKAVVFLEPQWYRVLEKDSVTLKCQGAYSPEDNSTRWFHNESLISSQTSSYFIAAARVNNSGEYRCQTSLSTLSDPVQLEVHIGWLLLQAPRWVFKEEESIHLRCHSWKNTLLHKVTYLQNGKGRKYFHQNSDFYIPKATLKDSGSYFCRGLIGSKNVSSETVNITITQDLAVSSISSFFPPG
T10 sequence (P08637 17-208 F176V): as the sequence (P08637 17-208 F176V) above

Kd [2]	KD fold (SG1 = 1) [3]	KD fold (SG1 = 1) [4]	Kd [4]	Kd [6]	KD fold (SG1 = 1) [7]	Binding to human FcgRs (parent B3 = 100) [9]	Binding to human FcgRs (parent B3 = 100) [10]	Binding to human FcgRs (parent B3 = 100) [11]	Binder	other results
9200 nM	1.5 fold	0.11 fold	3300 nM	1200 nM					M103205H795-MY171/M103202L889-SK1 (antibody, human IgG1, kappa, name in EU numbering, EU numbering) heavy: QVTLKESGPVLVKPTETLTLTCTVSGIDLSHDDISWVRQAPGKGLEWVGIISYAGSTYYASWAKGRLTISKDTSKNQVVLTMTNMDPVDTATYYCARGVPAYSHGGDLWGQGTLVTVSSASTKGPSVFPLAPSSKSTSGGTAALGCLVKDYFPEPVTVSWNSGALTSGVHTFPAVLQSSGLYSLSSVVTVPSSSLGTQTYICNVNHKPSNTKVDKKVEPKSCDKTHTCPPCPAPELLNGPSVFLFPPKPKDTLMISRTPEVTCVVVDVSEEDPEVKFNWYVDGVEVHNAKTKPREEQYNSTYRVVSVLTVLHQDWLNGKEYKCKVSNKALPAPIEKTISKAKGQPREPQVYTLPPSREEMTKNQVSLTCLVKGFYPSDIAVEWESNGQPENNYKTTPFVLDSDGSFFLYSKLTVDKSRWQQGNVFSCSVMHEALHNHYTQKSLSLSP light: DIVMTQSPATLSLSPGERATLSCTSSQSVYHANWLSWFQQKPGQPPKLLIYWASTLAYGVPSRFSGSGSGTDFTLTISSLQPEDAATYYCAGGYGGGRYAFGQGTKVEIKRTVAAPSVFIFPPSDEQLKSGTASVVCLLNNFYPREAKVQWKVDNALQSGNSQESVTEQDSKDSTYSLSSTLTLSKADYEKHKVYACEVTHQGLSSPVTKSFNRGEC	Kd [1]: 2300 nM; KD fold (SG1 = 1) [2]: 1.5 fold; Kd [3]: 9800 nM; Kd [5]: 2300 nM
					3.5 fold				M103205H795-MY468/M103202L889-SK1 (antibody) chain 1: QVTLKESGPVLVKPTETLTLTCTVSGIDLSHDDISWVRQAPGKGLEWVGIISYAGSTYYASWAKGRLTISKDTSKNQVVLTMTNMDPVDTATYYCARGVPAYSHGGDLWGQGTLVTVSSASTKGPSVFPLAPSSKSTSGGTAALGCLVKDYFPEPVTVSWNSGALTSGVHTFPAVLQSSGLYSLSSVVTVPSSSLGTQTYICNVNHKPSNTKVDKKVEPKSCDKTHTCPPCPNPELLTGPSVFLFPPKPKDTLMISRTPEVTCVVVDVSDEDPEVKFNWYVDGVEVHNAKTKPREEQYNSTYRVVSVLTVLHQDWLNGKEYKCKVSNKALPKPIEKTISKAKGQPREPQVYTLPPSREEMTKNQVSLTCLVKGFYPSDIAVEWESNGQPENNYKTTPPVLDSDGSFFLYSKLTVDKSRWQQGNVFSCSVMHEALHNHYTQKSLSLSP chain 2: DIVMTQSPATLSLSPGERATLSCTSSQSVYHANWLSWFQQKPGQPPKLLIYWASTLAYGVPSRFSGSGSGTDFTLTISSLQPEDAATYYCAGGYGGGRYAFGQGTKVEIKRTVAAPSVFIFPPSDEQLKSGTASVVCLLNNFYPREAKVQWKVDNALQSGNSQESVTEQDSKDSTYSLSSTLTLSKADYEKHKVYACEVTHQGLSSPVTKSFNRGEC	
6000 nM	1 fold	0.16 fold	2200 nM	700 nM					M103205H795-MY176/M103202L889-SK1 (antibody, human IgG1, kappa, name in EU numbering, EU numbering) heavy: QVTLKESGPVLVKPTETLTLTCTVSGIDLSHDDISWVRQAPGKGLEWVGIISYAGSTYYASWAKGRLTISKDTSKNQVVLTMTNMDPVDTATYYCARGVPAYSHGGDLWGQGTLVTVSSASTKGPSVFPLAPSSKSTSGGTAALGCLVKDYFPEPVTVSWNSGALTSGVHTFPAVLQSSGLYSLSSVVTVPSSSLGTQTYICNVNHKPSNTKVDKKVEPKSCDKTHTCPPCPAPELLNGPSVFLFPPKPKDTLMISRTPEVTCVVVDVSEEDPEVKFNWYVDGVEVHNAKTKPREEQYNSTYRVVSVLTVLHQDWLNGKEYKCKVSNKALPAPIEKTISKAKGQPREPQVYTLPPSREEMTKNQVSLTCLVKGFYPSDIAVEWESNGQPENNYKTTPLVLDSDGSFFLYSKLTVDKSRWQQGNVFSCSVMHEALHNHYTQKSLSLSP light: DIVMTQSPATLSLSPGERATLSCTSSQSVYHANWLSWFQQKPGQPPKLLIYWASTLAYGVPSRFSGSGSGTDFTLTISSLQPEDAATYYCAGGYGGGRYAFGQGTKVEIKRTVAAPSVFIFPPSDEQLKSGTASVVCLLNNFYPREAKVQWKVDNALQSGNSQESVTEQDSKDSTYSLSSTLTLSKADYEKHKVYACEVTHQGLSSPVTKSFNRGEC	KD fold (SG1 = 1) [5]: 0.1 fold; KD fold (SG1 = 1) [6]: 6.5 fold; Kd [8]: 6200 nM
					2.6 fold				M103205H795-MY452/M103202L889-SK1 (antibody, human IgG1, kappa, Substitutions in EU numbering on SG1) heavy: QVTLKESGPVLVKPTETLTLTCTVSGIDLSHDDISWVRQAPGKGLEWVGIISYAGSTYYASWAKGRLTISKDTSKNQVVLTMTNMDPVDTATYYCARGVPAYSHGGDLWGQGTLVTVSSASTKGPSVFPLAPSSKSTSGGTAALGCLVKDYFPEPVTVSWNSGALTSGVHTFPAVLQSSGLYSLSSVVTVPSSSLGTQTYICNVNHKPSNTKVDKKVEPKSCDKTHTCPPCPAQELLTGPSVFLFPPKPKDTLMISRTPEVTCVVVDVSDEDPEVKFNWYVDGVEVHNAKTKPREEQYNSTYRVVSVLTVLHQDWLNGKEYKCKVSNKALPKPIEKTISKAKGQPREPQVYTLPPSREEMTKNQVSLTCLVKGFYPSDIAVEWESNGQPENNYKTTPPVLDSDGSFFLYSKLTVDKSRWQQGNVFSCSVMHEALHNHYTQKSLSLSP light: DIVMTQSPATLSLSPGERATLSCTSSQSVYHANWLSWFQQKPGQPPKLLIYWASTLAYGVPSRFSGSGSGTDFTLTISSLQPEDAATYYCAGGYGGGRYAFGQGTKVEIKRTVAAPSVFIFPPSDEQLKSGTASVVCLLNNFYPREAKVQWKVDNALQSGNSQESVTEQDSKDSTYSLSSTLTLSKADYEKHKVYACEVTHQGLSSPVTKSFNRGEC	
						93	13	0	GpH7-B3 N325L / GpL16-k0 (antibody, human IgG1, kappa, also called B3 variant N325L) heavy: not shown light: DIVMTQSPLSLPVTPGEPASISCQASESLVHSNRNTYLHWYLQKPGQSPQLLIYKVSNRFSGVPDRFSGSGSGTDFTLKISRVEAEDVGVYYCSQNTHVPPTFGQGTKVEIERTVAAPSVFIFPPSDEQLKSGTASVVCLLNNFYPREAKVQWKVDNALQSGNSQESVTEQDSKDSTYSLSSTLTLSKADYEKHKVYACEVTHQGLSSPVTKSFNRGEC	
						21	2	1	GpH7-B3 P238E / GpL16-k0 (antibody, human IgG1, kappa, also called B3 variant P238E) heavy: not shown light: DIVMTQSPLSLPVTPGEPASISCQASESLVHSNRNTYLHWYLQKPGQSPQLLIYKVSNRFSGVPDRFSGSGSGTDFTLKISRVEAEDVGVYYCSQNTHVPPTFGQGTKVEIERTVAAPSVFIFPPSDEQLKSGTASVVCLLNNFYPREAKVQWKVDNALQSGNSQESVTEQDSKDSTYSLSSTLTLSKADYEKHKVYACEVTHQGLSSPVTKSFNRGEC	
